From article PMC7702303, “Biochemical and transcript level differences between the three human phosphofructokinases show optimisation of each isoform for specific metabolic niches” (Biochemical Journal, 2020)
“And” between values parts separate entries of the source, which are not always exact repeats. Identical values can stand only once.

Key:
[1] = target: the molecule itself; assay: SEC; size-exclusion chromatography of purified recombinant PFK isoforms, buffer and protein concentration not told in the main text (Supplementary Figure S2); tetramer to dimers
[2] = substrate: O=C(CO)[C@@H](O)[C@H](O)[C@H](O)COP(=O)(O)O; assay: ALDO-TIM-G3PDH enzyme-linked kinetic assay, PFK-L; format: biochemical, human; conditions: other: PFK-L; F6P titration, ATP 0.5 mM; n = 6; mean (SD); pH 7.4; 25.0 °C
Description: (§1) Recombinant human PFKs were expressed in PFK-deficient Saccharomyces cerevisiae and purified using the methods described previously, adapting earlier materials and protocols. Production of PFK intended for use in ATP titration experiments used 1 mM F6P as a tetramer stabilising agent in protein purification and storage buffers. Production of PFK intended for use in F6P titration experiments used 1 mM ATP as a tetramer stabilising agent in protein purification and storage buffers. Experimental details on the purification and characterisation procedures including figures showing SDS–PAGE gels of the highly pure PFKs used in the kinetic experiments described in this work have been recently published.
(§2) Assay buffer consisted of 50 mM TEA, 100 mM KCl, 10 mM MgCl2, 1 mM Tris(2-carboxyethyl)phosphine hydrochloride (TCEP), 10% glycerol, pH 7.4. Assay mix consisted of 5 units/ml glycerol-3-phosphate dehydrogenase (G3PDH, Sigma–Aldrich G6880), 2.5 units/ml aldolase (Sigma–Aldrich A2714), 25 units/ml triosephosphate isomerase (TIM, Sigma–Aldrich T6258), and 1.25 mM NADH. […] A SpectraMax M5 Multi-Mode Microplate Reader was used to measure A340nm at 13 s intervals for 10 min. […]
(§3) Time-dependent absorbance change was converted into rate of NADH oxidation (µM s^−1) or specific activity (µmol min^−1 mg protein^−1) using the Beer-Lambert law (molar extinction coefficient of NADH 6.22 mM^−1 cm^−1). […]

[3] = substrate: O=C(CO)[C@@H](O)[C@H](O)[C@H](O)COP(=O)(O)O; assay: ALDO-TIM-G3PDH enzyme-linked kinetic assay, PFK-P; format: biochemical, human; conditions: other: PFK-P; F6P titration, ATP 0.5 mM; n = 6; mean (SD); pH 7.4; 25.0 °C
Description: as §1, §2, §3

[4] = substrate: O=C(CO)[C@@H](O)[C@H](O)[C@H](O)COP(=O)(O)O; assay: ALDO-TIM-G3PDH enzyme-linked kinetic assay, PFK-M; format: biochemical, human; conditions: other: PFK-M; F6P titration, ATP 0.5 mM; n = 6; mean (SD); pH 7.4; 25.0 °C
Description: as §1, §2, §3

B1: human 6-phosphofructokinase-1-kinase, liver isoform (PFK-L) (enzyme, UniProt P17858 1-780, looked up)
chain: MAAVDLEKLRASGAGKAIGVLTSGGDAQGMNAAVRAVTRMGIYVGAKVFLIYEGYEGLVEGGENIKQANWLSVSNIIQLGGTIIGSARCKAFTTREGRRAAAYNLVQHGITNLCVIGGDGSLTGANIFRSEWGSLLEELVAEGKISETTARTYSHLNIAGLVGSIDNDFCGTDMTIGTDSALHRIMEVIDAITTTAQSHQRTFVLEVMGRHCGYLALVSALASGADWLFIPEAPPEDGWENFMCERLGETRSRGSRLNIIIIAEGAIDRNGKPISSSYVKDLVVQRLGFDTRVTVLGHVQRGGTPSAFDRILSSKMGMEAVMALLEATPDTPACVVTLSGNQSVRLPLMECVQMTKEVQKAMDDKRFDEATQLRGGSFENNWNIYKLLAHQKPPKEKSNFSLAILNVGAPAAGMNAAVRSAVRTGISHGHTVYVVHDGFEGLAKGQVQEVGWHDVAGWLGRGGSMLGTKRTLPKGQLESIVENIRIYGIHALLVVGGFEAYEGVLQLVEARGRYEELCIVMCVIPATISNNVPGTDFSLGSDTAVNAAMESCDRIKQSASGTKRRVFIVETMGGYCGYLATVTGIAVGADAAYVFEDPFNIHDLKVNVEHMTEKMKTDIQRGLVLRNEKCHDYYTTEFLYNLYSSEGKGVFDCRTNVLGHLQQGGAPTPFDRNYGTKLGVKAMLWLSEKLREVYRKGRVFANAPDSACVIGLKKKAVAFSPVTELKKDTDFEHRMPREQWWLSLRLMLKMLAQYRISMAAYVSGELEHVTRRTLSMDKGF
notes: human phosphofructokinase, liver isoform (PFK-L), recombinant; Active form is a tetramer in equilibrium with dimers
- binding result [1]: binds
- kcat [2]: 5.38 s⁻¹

B2: human 6-phosphofructokinase-1-kinase, platelet isoform (PFK-P) (enzyme, UniProt Q01813 1-784, looked up)
chain: MDADDSRAPKGSLRKFLEHLSGAGKAIGVLTSGGDAQGMNAAVRAVVRMGIYVGAKVYFIYEGYQGMVDGGSNIAEADWESVSSILQVGGTIIGSARCQAFRTREGRLKAACNLLQRGITNLCVIGGDGSLTGANLFRKEWSGLLEELARNGQIDKEAVQKYAYLNVVGMVGSIDNDFCGTDMTIGTDSALHRIIEVVDAIMTTAQSHQRTFVLEVMGRHCGYLALVSALACGADWVFLPESPPEEGWEEQMCVKLSENRARKKRLNIIIVAEGAIDTQNKPITSEKIKELVVTQLGYDTRVTILGHVQRGGTPSAFDRILASRMGVEAVIALLEATPDTPACVVSLNGNHAVRLPLMECVQMTQDVQKAMDERRFQDAVRLRGRSFAGNLNTYKRLAIKLPDDQIPKTNCNVAVINVGAPAAGMNAAVRSAVRVGIADGHRMLAIYDGFDGFAKGQIKEIGWTDVGGWTGQGGSILGTKRVLPGKYLEEIATQMRTHSINALLIIGGFEAYLGLLELSAAREKHEEFCVPMVMVPATVSNNVPGSDFSIGADTALNTITDTCDRIKQSASGTKRRVFIIETMGGYCGYLANMGGLAAGADAAYIFEEPFDIRDLQSNVEHLTEKMKTTIQRGLVLRNESCSENYTTDFIYQLYSEEGKGVFDCRKNVLGHMQQGGAPSPFDRNFGTKISARAMEWITAKLKEARGRGKKFTTDDSICVLGISKRNVIFQPVAELKKQTDFEHRIPKEQWWLKLRPLMKILAKYKASYDVSDSGQLEHVQPWSV
notes: human phosphofructokinase, platelet isoform (PFK-P), recombinant; Active form is a tetramer in equilibrium with dimers
- kcat [3]: 1.83 s⁻¹
- stoichiometry N [1]: 4 and 2

B3: human 6-phosphofructokinase-1-kinase, muscle isoform (PFK-M) (enzyme, UniProt P08237 1-780, looked up)
chain: MTHEEHHAAKTLGIGKAIAVLTSGGDAQGMNAAVRAVVRVGIFTGARVFFVHEGYQGLVDGGDHIKEATWESVSMMLQLGGTVIGSARCKDFREREGRLRAAYNLVKRGITNLCVIGGDGSLTGADTFRSEWSDLLSDLQKAGKITDEEATKSSYLNIVGLVGSIDNDFCGTDMTIGTDSALHRIMEIVDAITTTAQSHQRTFVLEVMGRHCGYLALVTSLSCGADWVFIPECPPDDDWEEHLCRRLSETRTRGSRLNIIIVAEGAIDKNGKPITSEDIKNLVVKRLGYDTRVTVLGHVQRGGTPSAFDRILGSRMGVEAVMALLEGTPDTPACVVSLSGNQAVRLPLMECVQVTKDVTKAMDEKKFDEALKLRGRSFMNNWEVYKLLAHVRPPVSKSGSHTVAVMNVGAPAAGMNAAVRSTVRIGLIQGNRVLVVHDGFEGLAKGQIEEAGWSYVGGWTGQGGSKLGTKRTLPKKSFEQISANITKFNIQGLVIIGGFEAYTGGLELMEGRKQFDELCIPFVVIPATVSNNVPGSDFSVGADTALNTICTTCDRIKQSAAGTKRRVFIIETMGGYCGYLATMAGLAAGADAAYIFEEPFTIRDLQANVEHLVQKMKTTVKRGLVLRNEKCNENYTTDFIFNLYSEEGKGIFDSRKNVLGHMQQGGSPTPFDRNFATKMGAKAMNWMSGKIKESYRNGRIFANTPDSGCVLGMRKRALVFQPVAELKDQTDFEHRIPKEQWWLKLRPILKILAKYEIDLDTSDHAHLEHITRKRSGEAAV
notes: human phosphofructokinase, muscle isoform (PFK-M), recombinant; Active form is a tetramer in equilibrium with dimers
- stoichiometry N [1]: 4
- kcat [4]: 8.11 s⁻¹
